From patent US20240124545A1, “COMPOSITIONS AND METHODS RELATING TO THE TREATMENT OF DISEASES” (ILC THERAPEUTICS LIMITED, priority 2021, published 2024)
Values joined by “and” are separate entries in the source; they are usually repeats but may differ in a detail not shown here. Equal values may be shown once. Read-outs that look alike come from different tables or passages of the source.

Legend:
HeLa-CD4-βgal cells [1] = system: HeLa-CD4-βgal cells
HEp-2 cells [2] = test: XTT viability (cytotoxicity) assay, uninfected HEp-2 cells; details: 1 μM; 72 hours
HeLa-CD4-βgal cells [3] = test: XTT viability (cytotoxicity) assay, uninfected HeLa-CD4-βgal cells (Experiment 4); details: 1 μM; 48 hours
HeLa-CD4-βgal cells [4] = test: XTT viability (cytotoxicity) assay, uninfected HeLa-CD4-βgal cells (Experiment 5); details: 10 μM
HRSV Long strain = test: HRSV infectivity assay, immunostaining readout in HEp-2 cells; type: cell-based, human respiratory syncytial virus (HRSV) Long strain; details: for HRSV Infectivity in HEp-2 cells (% vehicle): 72 hours, average of duplicates; for HRSV Infectivity in HEp-2 cells - Raw OD- Absorbance (490 nm): duplicate A490 values
HIV-1 LAI [5] = test: HIV-1 LAI infectivity assay with β-galactosidase readout (Experiment 5); type: cell-based, human immunodeficiency virus type 1 (HIV-1) LAI strain; details: for HIV-1 Infectivity in HeLa-CD4-βgal cells (% vehicle): mean of duplicates; for HIV Infectivity in HeLa CD4 βgal cells (β-galactosidase units): individual values
[6] = system: SK-OV-3 NucLight Red cells co-cultured with natural killer (NK) cells; test: Live cell imaging assay of immune cell killing (IncuCyte ZOOM); type: cell-based
Procedure: The effect of a hybrid recombinant interferon was tested in a live cell imaging assay of immune cell killing on an IncuCyte ZOOM platform. SK-OV-3 ovarian cancer cells with red labelled nuclei (SK-OV-3 NucLight Red) were used as target cells in the study. For immune cell killing, the cells were co-cultured with natural killer (NK) cells and positive controls consisted of cells treated with IL-2 and IL-12. Apoptosis was detected by staining caspase 3/7 positive objects while cell number was determined by counting of red nuclei. […] An initial optimisation experiment was carried out that tested 4 ratios of target and effector cells. […] Results were compared to no treatment controls, vehicle treated controls and IL-2/IL-12 treated cells. All conditions were tested using cells in co-culture (SK-OV-3 NucLight and NK cells) and mono-culture (SK-OV-3 NucLight Red). Cells were monitored for 4 days using an IncuCyte ZOOM, and IncuCyte software was used to measure green (apoptosis) and red (cell number) object count over time. Area under the curve (AUC) analysis was used to quantitate apoptosis and cell number over the time course.

natural killer cells = test: NK cell monoculture model (cell clustering); type: cell-based
IL-17A = test: Suppression of IL-17A synthesis; type: cell-based
IL 17F = test: Suppression of IL-17F; type: cell-based; details: listed as Hybrid 2
SARS-CoV-1 [7] = type: cell-based, SARS-HCoV2003VA2774; details: Vero E6 cells
SARS-CoV-1 [8] = type: cell-based
human RSV = test: Plaque assay with human RSV (FIG. 9); type: cell-based
[9] = system: Herpes Simplex Virus Type 1 (HSV1); test: HSV1 infection of primary human keratinocytes; type: cell-based
HIV-1 LAI [10] = details: for HIV Infectivity in HeLa-CD4-βgal cells (% vehicle): 48 hours
HEp-2 cells [11] = system: HEp-2 cells
HeLa-CD4-βgal cells [12] = system: HeLa-CD4-βgal cells; remark: listed apart in the source

CC[C@H]1CN2CCc3cc(OC)c(OC)cc3[C@@H]2C[C@@H]1C[C@H]1NCCc2cc(OC)c(OC)cc21 [Emetine]
inhibition by viability control in XTT cytotoxicity assays (HeLa-CD4-βgal cells [1]; human): greater than 85%
inhibition of cell viability by cytotoxic compound control (HeLa-CD4-βgal cells [1]; human): greater than 90%
HEp-2 viability in the XTT assay (percentage values), controls (HEp-2 cells [2]): 6.8 ± 1.1 % vehicle
Viability of HeLa-CD4-βgal cells in the XTT assay (percentage values), controls (HeLa-CD4-βgal cells [3]): 10.0 ± 1.7%
Viability of Uninfected HeLa-CD4-β gal Cells (% vehicle alone), controls (HeLa-CD4-βgal cells [4]; 48 hours): 5.6 ± 0.7 % vehicle alone
Viability (A490), controls, HeLa-CD4-βgal cells (HeLa-CD4-βgal cells [4]; raw absorbance 490 nm): 0.213 and 0.203

B1: Sample B: recombinant IFN-α10-IFN-α14 hybrid interferon alpha, amino acid sequence SEQ ID NO:3; sample B in Experiments 4 and 5 (protein)
chain: CDLPQTHSLGNRRALILLGQMGRISPFSCLKDRHDFRIPQEEFDGNQFQKAQAISVLHEMMQQTFNLFSTKNSSAAWDETLLEKFYIELFQQMNDLEACVIQEVGVEETPLMNEDSILAVKKYFQRITLYLIERKYSPCAWEVVRAEIMRSLSFSTNLQKRLRRKD
HRSV Infectivity in HEp-2 cells (% vehicle) (HRSV Long strain; 0.001 ng/mL): 91.5 % vehicle
HRSV Infectivity in HEp-2 cells - Raw OD- Absorbance (490 nm) (HRSV Long strain; 0.001 ng/mL): 0.647 and 0.675
HRSV Infectivity in HEp-2 cells (% vehicle) (HRSV Long strain; 0.01 ng/mL): 71.3 % vehicle
HRSV Infectivity in HEp-2 cells - Raw OD- Absorbance (490 nm) (HRSV Long strain; 0.01 ng/mL): 0.550 and 0.573
HRSV Infectivity in HEp-2 cells (% vehicle) (HRSV Long strain; 0.1 ng/mL): 27.6 % vehicle
HRSV Infectivity in HEp-2 cells - Raw OD- Absorbance (490 nm) (HRSV Long strain; 0.1 ng/mL): 0.353 and 0.338
HRSV Infectivity in HEp-2 cells (% vehicle) (HRSV Long strain; 1.0 ng/mL): 9.7 % vehicle
HRSV Infectivity in HEp-2 cells - Raw OD- Absorbance (490 nm) (HRSV Long strain; 1.0 ng/mL): 0.244 and 0.270
HRSV Infectivity in HEp-2 cells (% vehicle) (HRSV Long strain; 10 ng/mL): 12.3 % vehicle
HRSV Infectivity in HEp-2 cells - Raw OD- Absorbance (490 nm) (HRSV Long strain; 10 ng/mL): 0.248 and 0.292
HRSV Infectivity in HEp-2 cells (% vehicle) (HRSV Long strain; 100 ng/mL): 11.9 % vehicle
HRSV Infectivity in HEp-2 cells - Raw OD- Absorbance (490 nm) (HRSV Long strain; 100 ng/mL): 0.283 and 0.253
HRSV Infectivity in HEp-2 cells (% vehicle) (HRSV Long strain; 1,000 ng/mL): 9.6 % vehicle
HRSV Infectivity in HEp-2 cells - Raw OD- Absorbance (490 nm) (HRSV Long strain; 1,000 ng/mL): 0.262 and 0.251
HRSV Infectivity in HEp-2 cells (% vehicle) (HRSV Long strain; 10,000 ng/mL): 6.6 % vehicle
HRSV Infectivity in HEp-2 cells - Raw OD- Absorbance (490 nm) (HRSV Long strain; 10,000 ng/mL): 0.252 and 0.230
IC50 (infectivity), HRSV Antiviral Assay (HRSV Long strain; HRSV Long, Hep-2 cells, 3 days): 0.03 ng/mL and 0.027 ng/mL
HIV-1 Infectivity in HeLa-CD4-βgal cells (% vehicle) (HIV-1 LAI [5]; 0.0001 ng/mL, 48 hours): 102.4 % vehicle
HIV Infectivity in HeLa CD4 βgal cells (β-galactosidase units) (HIV-1 LAI [5]; 0.0001 ng/mL): 971,384 RLU and 1,112,752 RLU
HIV-1 Infectivity in HeLa-CD4-βgal cells (% vehicle) (HIV-1 LAI [5]; 0.001 ng/mL, 48 hours): 96.3 % vehicle
HIV Infectivity in HeLa CD4 βgal cells (β-galactosidase units) (HIV-1 LAI [5]; 0.001 ng/mL): 1,062,736 RLU and 896,209 RLU
HIV-1 Infectivity in HeLa-CD4-βgal cells (% vehicle) (HIV-1 LAI [5]; 0.01 ng/mL, 48 hours): 77.7 % vehicle
HIV Infectivity in HeLa CD4 βgal cells (β-galactosidase units) (HIV-1 LAI [5]; 0.01 ng/mL): 761,455 RLU and 820,758 RLU
HIV-1 Infectivity in HeLa-CD4-βgal cells (% vehicle) (HIV-1 LAI [5]; 0.1 ng/mL, 48 hours): 58.0 % vehicle
HIV Infectivity in HeLa CD4 βgal cells (β-galactosidase units) (HIV-1 LAI [5]; 0.1 ng/mL): 588,618 RLU and 595,007 RLU
HIV-1 Infectivity in HeLa-CD4-βgal cells (% vehicle) (HIV-1 LAI [5]; 1 ng/mL, 48 hours): 36.0 % vehicle
HIV Infectivity in HeLa CD4 βgal cells (β-galactosidase units) (HIV-1 LAI [5]; 1.0 ng/mL): 343,482 RLU and 394,833 RLU
HIV-1 Infectivity in HeLa-CD4-βgal cells (% vehicle) (HIV-1 LAI [5]; 10 ng/mL, 48 hours): 30.2 % vehicle
HIV Infectivity in HeLa CD4 βgal cells (β-galactosidase units) (HIV-1 LAI [5]; 10 ng/mL): 302,405 RLU and 317,823 RLU
HIV-1 Infectivity in HeLa-CD4-βgal cells (% vehicle) (HIV-1 LAI [5]; 100 ng/mL, 48 hours): 28.9 % vehicle
HIV Infectivity in HeLa CD4 βgal cells (β-galactosidase units) (HIV-1 LAI [5]; 100 ng/mL): 278,916 RLU and 314,495 RLU
HIV-1 Infectivity in HeLa-CD4-βgal cells (% vehicle) (HIV-1 LAI [5]; 1,000 ng/mL, 48 hours): 30.7 % vehicle
HIV Infectivity in HeLa CD4 βgal cells (β-galactosidase units) (HIV-1 LAI [5]; 1,000 ng/mL): 299,975 RLU and 330,705 RLU
HIV-1 Infectivity in HeLa-CD4-βgal cells (% vehicle) (HIV-1 LAI [5]; 10,000 ng/mL, 48 hours): 31.5 % vehicle
HIV Infectivity in HeLa CD4 βgal cells (β-galactosidase units) (HIV-1 LAI [5]; 10,000 ng/mL): 300,821 RLU and 344,654 RLU
IC50 (infectivity), HIV-1 Antiviral Assay (HeLa-CD4-Bgal cells) (HIV-1 LAI [5]; HIV-1 LAI, 48 hours): 0.03 ng/mL
infection signal still observed (HIV-1 LAI [5]; highest concentrations tested (10 μg/mL)): about 25%
IC50 for the reduction in cell number [6]: 1.3×10^6 IU/ml
apoptosis response of cells in mono-culture ([6]; SK-OV-3 NucLight Red mono-culture): only a marginal response
EC50 for apoptosis induction ([6]; co-culture model): 1.5×10^6 IU/ml
AUC of apoptosis (caspase 3/7 positive object count over time) ([6]; co-culture model, top dose (3×10^6 IU/ml), 4 days, vehicle controls 200): 1174
AUC values for cell number (red nuclei count over time) ([6]; top dose, vehicle controls 39921): 19501
direct activation of natural killer cells (cell clustering) (natural killer cells): very strong direct activation of natural killer cells
suppression of IL-17A synthesis (IL-17A; listed as HYBRID 2): suppression of IL-17A synthesis
suppression of IL-17A synthesis (IL-17A; listed as Hybrid 2): inhibits both 17 A and F very strongly
suppression of IL 17F (IL 17F): inhibits both 17 A and F very strongly
inhibition of the cytopathic effect following SARS-CoV-1 infection (SARS-CoV-1 [7]): inhibit the cytopathic effect
inhibition of plaque formation following SARS-CoV-1 infection (SARS-CoV-1 [8]): inhibit the cytopathic effect and plaque formation
inhibition of a plaque assay with human RSV (human RSV): inhibition of a plaque assay with human RSV
effect on HSV1 infection [9]: reduces Herpes Simplex Virus Type 1 (HSV1) infection
IC50 (infectivity), HIV-1 Antiviral Assay (HIV-1 LAI [10]): 0.009 ng/mL
HIV Infectivity in HeLa CD4 βgal cells (β-galactosidase units) (HIV-1 LAI [10]; 0.0001 ng/mL): 1,159,421 RLU and 1,143,347 RLU
HIV Infectivity in HeLa-CD4-βgal cells (% vehicle) (HIV-1 LAI [10]; 0.0001 ng/mL): 101.4 % vehicle
HIV Infectivity in HeLa-CD4-βgal cells (% vehicle) (HIV-1 LAI [10]; 0.001 ng/mL): 91.9 % vehicle
HIV Infectivity in HeLa CD4 βgal cells (β-galactosidase units) (HIV-1 LAI [10]; 0.01 ng/mL): 729,428 RLU and 754,356 RLU
HIV Infectivity in HeLa-CD4-βgal cells (% vehicle) (HIV-1 LAI [10]; 0.01 ng/mL): 65.2 % vehicle
HIV Infectivity in HeLa CD4 βgal cells (β-galactosidase units) (HIV-1 LAI [10]; 0.1 ng/mL): 505,696 RLU and 431,727 RLU
HIV Infectivity in HeLa-CD4-βgal cells (% vehicle) (HIV-1 LAI [10]; 0.1 ng/mL): 41.1 % vehicle
HIV Infectivity in HeLa CD4 βgal cells (β-galactosidase units) (HIV-1 LAI [10]; 1.0 ng/mL): 338,683 RLU and 353,822 RLU
HIV Infectivity in HeLa-CD4-βgal cells (% vehicle) (HIV-1 LAI [10]; 1.0 ng/mL): 30.3 % vehicle
HIV Infectivity in HeLa CD4 βgal cells (β-galactosidase units) (HIV-1 LAI [10]; 10 ng/mL): 292,575 RLU and 343,225 RLU
HIV Infectivity in HeLa-CD4-βgal cells (% vehicle) (HIV-1 LAI [10]; 10 ng/mL): 27.8 % vehicle
HIV Infectivity in HeLa CD4 βgal cells (β-galactosidase units) (HIV-1 LAI [10]; 100 ng/mL): 289,671 RLU and 320,902 RLU
HIV Infectivity in HeLa-CD4-βgal cells (% vehicle) (HIV-1 LAI [10]; 100 ng/mL): 26.7 % vehicle
HIV Infectivity in HeLa CD4 βgal cells (β-galactosidase units) (HIV-1 LAI [10]; 1,000 ng/mL): 340,382 RLU and 330,715 RLU
HIV Infectivity in HeLa-CD4-βgal cells (% vehicle) (HIV-1 LAI [10]; 1,000 ng/mL): 29.4 % vehicle
HIV Infectivity in HeLa CD4 βgal cells (β-galactosidase units) (HIV-1 LAI [10]; 10,000 ng/mL): 363,841 RLU and 344,014 RLU
HIV Infectivity in HeLa-CD4-βgal cells (% vehicle) (HIV-1 LAI [10]; 10,000 ng/mL): 31.0 % vehicle
CC50, Cytotoxicity Assay (HeLa-CD4-βgal cells) (HeLa-CD4-βgal cells [1]): >10000 ng/mL
CC50, Cytotoxicity Assay (Hep-2 cells) (HEp-2 cells [11]): >10000 ng/mL
CC50, Cytotoxicity Assay (uninfected HeLa-CD4-Bgal cells) (HeLa-CD4-βgal cells [12]): >10000 ng/mL
